The record followed here is US20090214663A1 (published 2009).

In the test the target is T1, mCAT-1 receptor expressed on HEK 293 cells (stable cell line) (mouse, UniProt Q09143 1-622).
T1 construct: whole, on cells
Put plainly: fluorescence microscopy, counting of green fluorescent Mo-NP bound per cell after 2.5 h at 37 C; 120 cells per cell line.

T1 sequence (Q09143 whole entry): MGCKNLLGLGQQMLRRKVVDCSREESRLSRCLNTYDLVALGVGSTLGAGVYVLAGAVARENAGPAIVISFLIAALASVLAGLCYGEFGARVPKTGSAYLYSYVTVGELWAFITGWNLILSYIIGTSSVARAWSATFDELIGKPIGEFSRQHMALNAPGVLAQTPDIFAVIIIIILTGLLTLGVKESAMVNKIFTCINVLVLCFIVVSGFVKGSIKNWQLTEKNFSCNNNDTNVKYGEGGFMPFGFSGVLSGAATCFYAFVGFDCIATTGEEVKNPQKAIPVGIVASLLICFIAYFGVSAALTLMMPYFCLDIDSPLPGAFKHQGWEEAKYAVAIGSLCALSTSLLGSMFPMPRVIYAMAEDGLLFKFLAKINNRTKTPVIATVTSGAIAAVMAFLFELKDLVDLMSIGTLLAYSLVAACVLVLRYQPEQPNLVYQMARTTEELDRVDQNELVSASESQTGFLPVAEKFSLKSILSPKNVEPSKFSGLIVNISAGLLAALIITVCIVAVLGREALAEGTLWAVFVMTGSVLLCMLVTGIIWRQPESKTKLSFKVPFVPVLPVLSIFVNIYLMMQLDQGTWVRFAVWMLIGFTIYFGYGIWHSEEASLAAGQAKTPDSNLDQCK

B1: Moloney murine leukemia virus (Mo-MLV) envelope protein, in virus membranes coated onto 100 nm carboxylate-modified fluorescent nanoparticles (Mo-NP) (other)
chain: ASPGSSPHQVYNITWEVTNGDRETVWATSGNHPLWTWWPDLTPDLCMLAHHGPSYWGLEYQSPFSSPPGPPCCSGGSSPGCSRDCEEPLTSLTPRCNTAWNRLKLDQTTHKSNEGFYVCPGPHRPRESKSCGGPDSFYCAYWGCETTGRAYWKPSSSWDFITVNNNLTSDQAVQVCKDNKWCNPLVIRFTDAGRRVTSWTTGHYWGLRLYVSGQDPGLTFGIRLRYQNLGPRVPIGPNPVLADQQPLSKPKPVKSPSVTKPPSGTPLSPTQLPPAGTENRLLNLVDGAYQALNLTSPDKTQECWLCLVAGPPYYEGVAVLGTYSNHTSAPANCSVASQHKLTLSEVTGQGLCIGAVPKTHQALCNTTQTSSRGSYYLVAPTGTMWACSTGLTPCISTTILNLTTDYCVLVELWPRVTYHSPSYVYGLFERSNRHKREPVSLTLALLLGGLTMGGIAAGIGTGTTALMATQQFQQLQAAVQDDLREVEKSISNLEKSLTSLSEVVLQNRRGLDLLFLKEGGLCAALKEECCFYADHTGLVRDSMAKLRERLNQRQKLFESTQGWFEGLFNRSPWFTTLISTIMGPLIVLLMILLFGPCILNRLVQFVKDRISVVQAL
notes: Native env in virus membranes released by osmotic shock and sonication, then extruded over nanoparticles; In the β-lactamase experiments the particle core also carried covalently coupled B. cereus penicillinase; also called Mo-nanoparticles; Mo env-coated nanoparticles
B1: the “fold more Mo-NP bound than by cells lacking the receptor” value amounted to 26 fold.
